T1: Recombinant Human IL-17 (human, UniProt Q16552 20-155, limits assumed)
T1 sequence (looked up): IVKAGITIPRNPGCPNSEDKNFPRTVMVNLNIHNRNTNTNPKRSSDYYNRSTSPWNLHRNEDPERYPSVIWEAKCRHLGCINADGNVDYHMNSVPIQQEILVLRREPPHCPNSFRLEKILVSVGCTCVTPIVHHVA


Columns and labels:
Recombinant Human IL-17 [1] = target: T1, Recombinant Human IL-17; assay: cell-based or functional assay
Recombinant Human IL-17 [2] = target: T1, Recombinant Human IL-17; assay: SPR, Biacore T200, antibody captured, antigen 0.8-100 nM, 25 C
Method: (§1) The BIACORE assay (GE, Healthcare Piscataway, N.J.) determined the affinity of antibodies or DVD-Ig proteins with kinetic measurements of on-rate and off-rate constants. Binding of antibodies or DVD-Ig proteins to a target antigen (for example, a purified recombinant target antigen) was determined by surface plasmon resonance-based measurements with a Biacore T200 using running HBS-EP+buffer from GE Healthcare at 25° C. AN chemicals were obtained from GE Healthcare unless otherwise described. For example, approximately 5000 RU of goat anti-mouse IgG, (Fcγ), fragment specific polyclonal antibody (Pierce Biotechnology Inc, Rockford, Ill.) diluted in 10 mM sodium acetate (pH 4.5) was directly immobilized across a CM5 research grade biosensor chip using a standard amine coupling kit according to manufacturer's instructions. Unreacted moieties on the biosensor surface were blocked with ethanolamine. Modified carboxymethyl dextran surface in flowcell 1 was used as a reference surface. Rate constants were derived by making kinetic binding measurements at different antigen concentrations ranging from 0.8-100 nM. Binding was recorded as a function of time and kinetic rate constants were calculated. In this assay, association rate was evaluated for 5 minutes and dissociation was monitored for 10 minutes. For kinetic screening analysis, rate equations derived from the 1:1 binding model were fitted simultaneously to association and dissociation phases of all injections (using global fit analysis with Rmax fit locally to account for capture variations) with the use of Biaevaluation software. Purified antibodies or DVD-Ig proteins were diluted in HEPES-buffered saline for capture across goat anti-mouse IgG specific reaction surfaces. Antibodies or DVD-Ig proteins to be captured as a ligand were injected over reaction matrices at a flow rate of 5 μl/minute. The association and dissociation rate constants, kₒₙ (M⁻¹s⁻¹) and koff (s⁻¹) were determined under a continuous flow rate of 50 μl/minute. Rate constants were derived by making kinetic binding measurements at different antigen concentrations ranging from 0.8-100 nM. Binding was recorded as a function of time and kinetic rate constants were calculated. In this assay, association rate was evaluated for 5 minutes and dissociation was monitored for 10 minutes.

Recombinant Human IL-1b [3] = target: T2, Recombinant Human IL-1b (human, UniProt P01584 117-269); assay: cell-based or functional assay
Recombinant Human IL-1b [4] = target: T2, Recombinant Human IL-1b; assay: SPR, Biacore T200, DVD-Ig captured, antigen 0.8-100 nM, 25 C
Method: as §1

Recombinant Human IL-17 [5] = target: T1, Recombinant Human IL-17; assay: as above
Method: as §1

Recombinant Human IL-1b [6] = target: T2, Recombinant Human IL-1b; assay: SPR, Biacore T200, antibody captured, antigen 0.8-100 nM, 25 C
Method: as §1

| Binder | C-Terminal VD IL17 Neutralization Assay (IC50 nM) (Recombinant Human IL-17 [1]) [nM] | N-Terminal VD IL-1β Neutralization Assay (IC50 nM) (Recombinant Human IL-1b [3]) [nM] | Kd (Recombinant Human IL-1b [6]) [nM] | koff (Recombinant Human IL-1b [6]) [s⁻¹] | kon (Recombinant Human IL-1b [6]) [M⁻¹ s⁻¹] | other results |
| --- | --- | --- | --- | --- | --- | --- |
| AB461 (antibody, V domains shown, Parent anti-IL-17 antibody; also called AB461VH) VH: EVQLVQSGAEVKKPGESVKISCKASGGSFRSYGISWVRQAPGQGLEWMGGITHFFGITDYAQKFQGRVTITADESTTTAYMELSGLTSDDTAVYYCAREPNDFWGGYYDTHDFDSWGQGTTVTVSS VL: EIVLTQSPDFQSVTPKEKVTITCRASQNIGSELHWYQQKPDQSPKLLIKYASHSISGVPSRFSGSGSGTDFTLTINGLEAEDAATYYCHQSDTLPHTFGQGTKVDIKR | – | – | – | – | – | Kd (Recombinant Human IL-17 [2]): 0.00086 nM; koff (Recombinant Human IL-17 [2]): 5.3e-06 s⁻¹; kon (Recombinant Human IL-17 [2]): 6.2e+06 M⁻¹ s⁻¹ |
| DVD3415 (bispecific antibody, human IgG1, human kappa; also called DVD3415H; DVD3415L) heavy: EVQLVESGGGVVQPGRSLRLSCSASGFIFSRYDMSWVRQAPGKGLEWVAYISHGGAGTYYPDSVKGRFTISRDNSKNTLFLQMDSLRPEDTGVYFCARGGVTKGYFDVWGQGTPVTVSSGGGGSGGGGSEVQLVQSGAEVKKPGSSVKVSCKASGGSFGGYGIGWVRQAPGQGLEWMGGITPFFGFADYAQKFQGRVTITADESTTTAYMELSGLTSDDTAVYYCARDPNEFWGGYYSTHDFDSWGQGTTVTVSSASTKGPSVFPLAPSSKSTSGGTAALGCLVKDYFPEPVTVSWNSGALTSGVHTFPAVLQSSGLYSLSSVVTVPSSSLGTQTYICNVNHKPSNTKVDKKVEPKSCDKTHTCPPCPAPEAAGGPSVFLPPPKPKDTLMISRTPEVTCVVVDVSHEDPEVKFNWYVDGVEVHNAKTKPREEQYNSTYRVVSVLTVLHQDWLNGKEYKCKVSNKALPAPIEKTISKAKGQPREPQVYTLPPSREEMTKNQVSLTCLVKGFYPSDIAVEWESNGQPENNYKTTPPVLDSDGSFFLYSKLTVDKSRWQQGNVFSCSVMHEALHNHYTQKSLSLSPGK light: DIQMTQSPSSLSASVGDRVTITCRASGNIHNYLTWYQQTPGKAPKLLIYNAKTLADGVPSRFSGSGSGTDYTFTISSLQPEDIATYYCQHFWSIPYTFGQGTKLQITRGGSGGGGSGEIVLTQSPDFQSVTPKEKVTITCRASQDIGSELHWYQQKPDQPPKLLIKYASHSTSGVPSRFSGSGSGTDFTLTINGLEAEDAGTYYCHQTDSLPYTFGPGTKVDIKRTVAAPSVFIFPPSDEQLKSGTASVVCLLNNFYPREAKVQWKVDNALQSGNSQESVTEQDSKDSTYSLSSTLTLSKADYEKHKVYACEVTHQGLSSPVTKSFNRGEC | 0.091 | 0.027 | – | – | – | Kd (Recombinant Human IL-1b [4]): 0.051 nM; koff (Recombinant Human IL-1b [4]): 3.8e-05 s⁻¹; kon (Recombinant Human IL-1b [4]): 740000 M⁻¹ s⁻¹; Kd (Recombinant Human IL-17 [5]): < 0.0048 nM; koff (Recombinant Human IL-17 [5]): < 1e-06 s⁻¹; kon (Recombinant Human IL-17 [5]): 210000 M⁻¹ s⁻¹ |
| AB270 (antibody, V domains shown, Parent anti-IL-1β antibody; also called AB270VH) VH: EVQLQESGPGLVKPSETLSLTCTVSGFSLSDYGVSWIRQPPGKGLEWLGLIWGGGDTYYNSPLKSRLTISKDNSKSQVSLKLSSVTAADTAVYYCAKQRTLWGYDLYGMDYWGQGTLVTVSS VL: DTQVTQSPSSLSASVGDRVTITCITSTDIDVDMNWYQQKPGKPPKLLISQGNTLRPGVPSRFSSSGSGTDFTFTISSLQPEDFATYYCLQSDNLPLTFGQGTKLEIKR | – | 0.239 | 0.08 | 0.00053 | 6.6e+06 | – |
| AB272 (antibody, V domains shown, Parent anti-IL-1β antibody; also called AB272VH) VH: EVQLVESGGGLVQPGGSLRLSCAVSGFTLSDYGVSWIRQAPGKGLEWLGLIWGGGDTYYNSPLKSRLTISKDNSKSTVYLQMNSLRAEDTAVYYCAKQRTLWGYDLYGMDYWGQGTLVTVSS VL: ETTVTQSPSSLSASVGDRVTITCITSTDIDVDMNWYQQKPGKPPKLLISQGNTLRPGVPSRFSSSGSGTDFTFTISSLQPEDFATYYCLQSDNLPLTFGQGTKLEIKR | – | 0.424 | 0.14 | 0.00056 | 4e+06 | – |
| AB271 (antibody, V domains shown, Parent anti-IL-1β antibody; also called AB271VH) VH: EVQLQESGPGLVKPSETLSLTCTVSGFSLSDYGVSWIRQPPGKGLEWLGLIWGGGDTYYNSPLKSRLTISKDNSKSQVSLKLSSVTAADTAVYYCAKQRTLWGYDLYGMDYWGQGTLVTVSS VL: DTVVTQSPAFLSVTPGEKVTITCITSTDIDVDMNWYQQKPDQPPKLLISQGNTLRPGVPSRFSSSGSGTDFTFTISSLEAEDAATYYCLQSDNLPLTFGQGTKLEIKR | – | 0.301 | 0.11 | 0.00051 | 4.6e+06 | – |
| AB273 (antibody, V domains shown, Parent anti-IL-17 antibody; also called AB273VH) VH: EVQLVQSGAEVKKPGSSVKVSCKASGYTFTDYEIHWVRQAPGQGLEWMGVNDPESGGTFYNQKFDGRVTLTADESTSTAYMELSSLRSEDTAVYYCTRYSKWDSFDGMDYWGQGTTVTVSS VL: DIQMTQSPSSLSASVGDRVTITCRASSGIISYIDWFQQKPGKAPKRLIYATFDLASGVPSRFSGSGSGTDYTLTISSLQPEDFATYYCRQVGSYPETFGQGTKLEIKR | 0.031 | – | – | – | – | Kd (Recombinant Human IL-17 [2]): 0.0046 nM; koff (Recombinant Human IL-17 [2]): 1.3e-05 s⁻¹; kon (Recombinant Human IL-17 [2]): 2.7e+06 M⁻¹ s⁻¹ |

The next lines start with results.

| C-Terminal VD IL17 Neutralization Assay (IC50 nM) (Recombinant Human IL-17 [1]) [nM] | N-Terminal VD IL-1β Neutralization Assay (IC50 nM) (Recombinant Human IL-1b [3]) [nM] | Kd (Recombinant Human IL-1b [6]) [nM] | koff (Recombinant Human IL-1b [6]) [s⁻¹] | kon (Recombinant Human IL-1b [6]) [M⁻¹ s⁻¹] | Binder | other results |
| --- | --- | --- | --- | --- | --- | --- |
| 0.048 | – | – | – | – | AB420 (antibody, V domains shown) VH: EVQLVQSGAEVKKPGSSVKVSCKASGGSFGGYGIGWVRQAPGQGLEWMGGITPFFGFADYAQKFQGRVTITADESTTTAYMELSGLTSDDTAVYYCARDPNEFWGGYYSTHDFDSWGQGTTVTVSS VL: EIVLTQSPDFQSVTPKEKVTITCRASQDIGSELHWYQQKPDQPPKLLIKYASHSTSGVPSRFSGSGSGTDFTLTINGLEAEDAGTYYCHQTDSLPYTFGPGTKVDIKR | – |
| 0.068 | 0.018 | – | – | – | DVD3418 (bispecific antibody, human IgG1, human kappa; also called DVD3418H; DVD3418L) heavy: EVQLVESGGGVVQPGRSLRLSCSASGFIFSRYDMSWVRQAPGKGLEWVAYISHGGAGTYYPDSVKGRFTISRDNSKNTLFLQMDSLRAEDTAVYYCARGGVYKGYFDVWGQGTPVTVSSGGGGSGGGGSEVQLVQSGAEVKKPGSSVKVSCKASGGSFGGYGIGWVRQAPGQGLEWMGGITPFFGFADYAQKFQGRVTITADESTTTAYMELSGLTSDDTAVYYCARDPNEFWGGYYSTHDFDSWGQGTTVTVSSASTKGPSVFPLAPSSKSTSGGTAALGCLVKDYFPEPVTVSWNSGALTSGVHTFPAVLQSSGLYSLSSVVTVPSSSLGTQTYICNVNHKPSNTKVDKKVEPKSCDKTHTCPPCPAPEAAGGPSVFLPPPKPKDTLMISRTPEVTCVVVDVSHEDPEVKFNWYVDGVEVHNAKTKPREEQYNSTYRVVSVLTVLHQDWLNGKEYKCKVSNKALPAPIEKTISKAKGQPREPQVYTLPPSREEMTKNQVSLTCLVKGFYPSDIAVEWESNGQPENNYKTTPPVLDSDGSFFLYSKLTVDKSRWQQGNVFSCSVMHEALHNHYTQKSLSLSPGK light: DIQMTQSPSSLSASVGDRVTITCRASGNIHNYLTWYQQTPGKAPKLLIYNAKTLADGVPSRFSGSGSGTDYTFTISSLQPEDIATYYCQHFWSIPYTFGQGTKLQITRGGSGGGGSGEIVLTQSPDFQSVTPKEKVTITCRASQDIGSELHWYQQKPDQPPKLLIKYASHSTSGVPSRFSGSGSGTDFTLTINGLEAEDAGTYYCHQTDSLPYTFGPGTKVDIKRTVAAPSVFIFPPSDEQLKSGTASVVCLLNNFYPREAKVQWKVDNALQSGNSQESVTEQDSKDSTYSLSSTLTLSKADYEKHKVYACEVTHQGLSSPVTKSFNRGEC | Kd (Recombinant Human IL-1b [4]): 0.034 nM; koff (Recombinant Human IL-1b [4]): 1.8e-05 s⁻¹; kon (Recombinant Human IL-1b [4]): 540000 M⁻¹ s⁻¹; Kd (Recombinant Human IL-17 [5]): < 0.0048 nM; koff (Recombinant Human IL-17 [5]): < 1e-06 s⁻¹; kon (Recombinant Human IL-17 [5]): 210000 M⁻¹ s⁻¹ |
